This is an account of results in article PMC11681983.

A word on the EC50: it is the concentration needed to bring the measured effect to its halfway point. Low readings indicate a more potent agent, high ones a less potent agent. Usually Kd stands for the equilibrium constant for the complex coming apart. Higher therefore signals weaker binding.

The target of assay [1] is VEGF (UniProt P15692).
Assay [2] deals with VEGF (UniProt P15692). Kind of assay: ELISA; direct binding ELISA to IL-17A or VEGF, measured in duplicate, n = 2; who was coated is not told. In general terms: In an ELISA, binding on a coated surface is turned into a signal by an enzyme label.
The target in assay [3] is VEGF (UniProt P15692). Kind of assay: SPR; Biacore, n = 3. (In general: Surface plasmon resonance follows binding to a sensor surface in real time, without labels.)

Sequence of VEGF (P15692 whole entry): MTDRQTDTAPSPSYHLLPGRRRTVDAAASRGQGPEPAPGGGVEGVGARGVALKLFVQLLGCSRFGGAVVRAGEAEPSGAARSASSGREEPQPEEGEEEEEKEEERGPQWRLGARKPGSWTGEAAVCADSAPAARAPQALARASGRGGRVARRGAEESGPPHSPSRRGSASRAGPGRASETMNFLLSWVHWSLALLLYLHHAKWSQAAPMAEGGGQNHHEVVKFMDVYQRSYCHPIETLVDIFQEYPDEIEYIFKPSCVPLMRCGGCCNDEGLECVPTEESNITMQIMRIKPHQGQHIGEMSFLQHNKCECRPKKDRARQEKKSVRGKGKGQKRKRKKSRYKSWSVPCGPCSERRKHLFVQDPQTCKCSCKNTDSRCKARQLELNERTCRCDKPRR

B1: bispecific fusion protein 17V05 (bispecific antibody, V domains shown)
VH: EVQLVESGGGLVQPGGSLRLSCAASGFTFSSFDMSWGRQAPGKRLEWVAFMSSGGSTYYPDSVKGRFTISRDNSKNTLYLQMNSLRAEDTAVYYCARGERYGSYWGQGTLVTVSS
VL: DIQMTQSPSSLSASVGDRVTITCKASDHINNWLAWYQQKPGKAPKLLISGATSLETGVPSRFSGSGSGTDYTLTISSLQPEDFATYYCQQYWSTPFTFGSGTKLEIK
In the assay with VEGF [1], B1 displayed a luciferase signal of KDR/NFAT-RE HEK293 reporter cells with 30 ng/mL VEGF; blocks signalling of VEGF through KDR of 0.26 nM. In the assay with VEGF [2], the half-maximal effective concentration (EC50) was found to be 0.37 nM. For the same molecule, the Kd with VEGF [3] stood at 0.011 nM.
